What was measured:
Assay in all cases: killing
[1] = target: T1, MAGE-B2 peptide, E6N peptide on HLA-A*02:01 (human)
T1 peptide: GVYDGNEHSV

[2] = target: T2, MAGE-B2 peptide, E6D peptide on HLA-A*02:01 (human)
T2 peptide: GVYDGDEHSV

[3] = target: T3, MAGE-B2 peptide, G5P peptide on HLA-A*02:01 (human)
T3 peptide: GVYDPEEHSV

[4] = target: T4, MAGE-B2 peptide, V10F peptide on HLA-A*02:01 (human)
T4 peptide: GVYDGEEHSF

[5] = target: T5, MAGE-B2 peptide, G1T peptide on HLA-A*02:01 (human)
T5 peptide: TVYDGEEHSV

[6] = target: T6, MAGE-B2 peptide, G1E peptide on HLA-A*02:01 (human)
T6 peptide: EVYDGEEHSV

[7] = target: T7, MAGE-B2 peptide, G1C peptide on HLA-A*02:01 (human)
T7 peptide: CVYDGEEHSV

[8] = target: T8, MAGE-B2 peptide, D4W peptide on HLA-A*02:01 (human)
T8 peptide: GVYWGEEHSV

[9] = target: T9, MAGE-B2 peptide, G1L peptide on HLA-A*02:01 (human)
T9 peptide: LVYDGEEHSV

[10] = target: T10, MAGE-B2 peptide, G5L peptide on HLA-A*02:01 (human)
T10 peptide: GVYDLEEHSV

[11] = target: T11, MAGE-B2 peptide, G1P peptide on HLA-A*02:01 (human)
T11 peptide: PVYDGEEHSV

[12] = target: T12, MAGE-B2 peptide, G1Y peptide on HLA-A*02:01 (human)
T12 peptide: YVYDGEEHSV

[13] = target: T13, MAGE-B2 peptide, G5C peptide on HLA-A*02:01 (human)
T13 peptide: GVYDCEEHSV

[14] = target: T14, MAGE-B2 peptide, G1V peptide on HLA-A*02:01 (human)
T14 peptide: VVYDGEEHSV

[15] = target: T15, MAGE-B2 peptide, G1F peptide on HLA-A*02:01 (human)
T15 peptide: FVYDGEEHSV

[16] = target: T16, MAGE-B2 peptide, V2C peptide on HLA-A*02:01 (human)
T16 peptide: GCYDGEEHSV

[17] = target: T17, MAGE-B2 peptide, G1S peptide on HLA-A*02:01 (human)
T17 peptide: SVYDGEEHSV

[18] = target: T18, MAGE-B2 peptide, G1H peptide on HLA-A*02:01 (human)
T18 peptide: HVYDGEEHSV

[19] = target: T19, MAGE-B2 peptide, G1M peptide on HLA-A*02:01 (human)
T19 peptide: MVYDGEEHSV

[20] = target: T20, MAGE-B2 peptide, V10C peptide on HLA-A*02:01 (human)
T20 peptide: GVYDGEEHSC

[21] = target: T21, MAGE-B2 peptide, V2A peptide on HLA-A*02:01 (human)
T21 peptide: GAYDGEEHSV

[22] = target: T22, MAGE-B2 peptide, G1D peptide on HLA-A*02:01 (human)
T22 peptide: DVYDGEEHSV

[23] = target: T23, MAGE-B2 peptide, G1N peptide on HLA-A*02:01 (human)
T23 peptide: NVYDGEEHSV

[24] = target: T24, MAGE-B2 peptide, G1Q peptide on HLA-A*02:01 (human)
T24 peptide: QVYDGEEHSV

[25] = target: T25, MAGE-B2 peptide, G5R peptide on HLA-A*02:01 (human)
T25 peptide: GVYDREEHSV

[26] = target: T26, MAGE-B2 peptide, G1W peptide on HLA-A*02:01 (human)
T26 peptide: WVYDGEEHSV

[27] = target: T27, MAGE-B2 peptide, V10M peptide on HLA-A*02:01 (human)
T27 peptide: GVYDGEEHSM

[28] = target: T28, MAGE-B2 peptide, V2G peptide on HLA-A*02:01 (human)
T28 peptide: GGYDGEEHSV

[29] = target: T29, MAGE-B2 peptide, V2S peptide on HLA-A*02:01 (human)
T29 peptide: GSYDGEEHSV

[30] = target: T30, MAGE-B2 peptide, E6K peptide on HLA-A*02:01 (human)
T30 peptide: GVYDGKEHSV

[31] = target: T31, MAGE-B2 peptide, E7G peptide on HLA-A*02:01 (human)
T31 peptide: GVYDGEGHSV

[32] = target: T32, MAGE-B2 peptide, E6Y peptide on HLA-A*02:01 (human)
T32 peptide: GVYDGYEHSV

[33] = target: T33, MAGE-B2 peptide, E6R peptide on HLA-A*02:01 (human)
T33 peptide: GVYDGREHSV

[34] = target: T34, MAGE-B2 peptide, E6P peptide on HLA-A*02:01 (human)
T34 peptide: GVYDGPEHSV

[35] = target: T35, MAGE-B2 peptide, V10Y peptide on HLA-A*02:01 (human)
T35 peptide: GVYDGEEHSY

[36] = target: T36, MAGE-B2 peptide, E6L peptide on HLA-A*02:01 (human)
T36 peptide: GVYDGLEHSV

[37] = target: T37, MAGE-B2 peptide, E6A peptide on HLA-A*02:01 (human)
T37 peptide: GVYDGAEHSV

[38] = target: T38, MAGE-B2 peptide, E6I peptide on HLA-A*02:01 (human)
T38 peptide: GVYDGIEHSV

[39] = target: T39, MAGE-B2 peptide, E6F peptide on HLA-A*02:01 (human)
T39 peptide: GVYDGFEHSV

Measured: binding result

B1: TCR2 (TCR, V domains shown)
Valpha: QKEVEQNSGPLSVPEGAIASLNCTYSDRGSQSFFWYRQYSGKSPELIMSIYSNGDKEDGRFTAQLNKASQYVSLLIRDSQPSDSATYLCAVNIPFSNSGGYQKVTFGTGTKLQVIP
Vbeta: NAGVTQTPKFRVLKTGQSMTLLCAQDMNHEYMYWYRQDPGMGLRLIHYSVGEGTTAKGEVPDGYNVSRLKKQNFLLGLESAAPSQTSVYFCASRHPGQYNQPQHFGDGTRLSIL
recognises: [1] | [2] | [3]

B2: TCR1 (TCR, V domains shown)
Valpha: KQEVTQIPAALSVPEGENLVLNCSFTDSAIYNLQWFRQDPGKGLTSLLLIQSSQREQTSGRLNASLDKSSGRSTLYIAASQPGDSATYLCAAMKTSYDKVIFGPGTSLSVIP
Vbeta: GEEVAQTPKHLVRGEGQKAKLYCAPIKGHSYVFWYQQVLKNEFKFLISFQNENVFDETGMPKERFSAKCLPNSPCSLEIQATKLEDSAVYFCASSQGQGGYGYTFGSGTRLTVV
not listed: [1] | [2] | [3] | [30] | [31] | [32] | [33] | [34] | [35] | [36] | [37] | [38] | [39]
recognises: all other assays above

B3: TCR3 (TCR, V domains shown)
Valpha: AQKVTQAQTEISVVEKEDVTLDCVYETRDTTYYLFWYKQPPSGELVFLIRRNSFDEQNEISGRYSWNFQKSTSSFNFTITASQVVDSAVYFCALSVLRMDSSYKLIFGSGTRLLVRP
Vbeta: NAGVTQTPKFRVLKTGQSMTLLCAQDMNHEYMYWYRQDPGMGLRLIHYSVGEGTTAKGEVPDGYNVSRLKKQNFLLGLESAAPSQTSVYFCASSLQGAGQPQHFGDGTRLSIL
recognises: [30] | [31] | [32] | [33] | [34] | [35] | [36] | [37] | [38] | [39]

From patent US20240100162A1 (published 2024)
